Source: the supplement of paper PMC10567573
± gives the standard deviation.

Test: protein stability index of a GFP-peptide fusion (GPS, HEK-293T) (PSI 1-6); higher = more stable
[1] = treatment: DMSO, c terminus: a fixed tail appended
[2] = treatment: MLN4924 1 uM, 8 h, c terminus: a fixed tail appended
[3] = treatment: DMSO, c terminus: native
[4] = treatment: MLN4924 1 uM, 8 h, c terminus: native
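Note: 24-mer peptide tiles fused after GFP, lentivirally expressed, FACS-sorted into six equal bins by GFP/DsRed ratio, decoded by Illumina sequencing, PSI is the read-weighted mean bin number.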

Row | Sequence | protein stability index [1] | protein stability index [2] | protein stability index [3] | protein stability index [4]
1 | ASSQHSEGSRSSGSNRSGSDRRKE [DVL3] | 5.37 ± 0.16 | 5.52 ± 0.16 |  | 
2 | NDDSADYQHFLQDCVDGLFKEVKE [DLC1] | 2.96 ± 0.5 | 3.54 ± 0.62 |  | 
3 | FRAGMKKEAVQNERDRISTRRSSY [HNF4A] | 4.2 ± 0.21 | 4.17 ± 0.22 |  | 
4 | QQNEDLRRMAESLRIPEGPIDQGP [FUT8] | 4.96 ± 0.23 | 4.94 ± 0.17 |  | 
5 | YQKAAEEVEAKFKRYESHPVCADL [CHCHD3] | 4.26 ± 0.14 | 4.25 ± 0.28 |  | 
6 | EIIKVTEQLIEAISNGDFESYTKM [CAMK2A] | 2.27 ± 0.53 | 1.91 ± 0.61 |  | 
7 | SLRFNGRVLFIKDVIGDEICCWSF [KCTD10] | 2.65 ± 0.49 | 2.42 ± 0.45 |  | 
8 | RHLERKAWVANFERPRMNANSLLA [CRY1] | 2.49 ± 0.27 | 3.1 ± 0.15 |  | 
9 | HGDARATGREMHGKNWSKLCKDCQ [TPPP] | 4.18 ± 0.13 | 4.53 ± 0.23 |  | 
10 | INSDTGVLYALRSFDYEQFHELQM [PCDHGA10] | 2.2 ± 0.2 | 2.35 ± 0.29 |  | 
11 | MEPGGARLRLQRTGGLGGERERQP [SOAT2] | 4.58 ± 0.12 | 4.65 ± 0.21 |  | 
12 | SQMSPLSLYGENSNSLSSAEPLKE [ATF6] | 5.01 ± 0.3 | 5.03 ± 0.22 |  | 
13 | VYSVSVDQKERCIIVRTTNKKYYK [DPCD] | 2.14 ± 0.14 | 2.21 ± 0.38 |  | 
14 | VIDILPNCVSSVYLYYDPDYSFLS [ATE1] | 3.35 ± 0.49 | 3.1 ± 0.77 |  | 
15 | EQLRREKIDLENTLEQEQEALVNR [CCDC6] | 5.2 ± 0.27 | 5.42 ± 0.1 |  | 
16 | EHGATLAVIDSEKDMNFLKRYAGR [CD69] | 3.84 ± 0.34 | 3.95 ± 0.27 |  | 
17 | SYDVALHRTRLQDLRVLVSNASED [SCARA5] | 3.77 ± 0.18 | 3.93 ± 0.27 |  | 
18 | DPANCDYVIVSGAQRKEERWDMAD [YJU2B] | 4.74 ± 0.3 | 4.63 ± 0.16 |  | 
19 | QCLDKTNESALVKEKELSIELANI [MTUS2] | 4.79 ± 0.27 | 4.77 ± 0.22 |  | 
20 | AIFIMSLNKRHSSGDGNSKLKSE [MFSD9] |  |  | 2.64 ± 0.27 | 2.22 ± 0.15
21 | LKLYEQWKNFDERKEMATILSKMP [CCNC] | 2.61 ± 0.59 | 2.62 ± 0.41 |  | 
22 | EEMEEEEEEEEEEDEDDDSADMDE [FBXO3] | 5.57 ± 0.15 | 5.59 ± 0.087 |  | 
23 | LLLPGIYTVSATAPGYDPETVTVT [CPN1] | 2.16 ± 0.22 | 2.17 ± 0.31 |  | 

Row | Sequence | protein stability index [1] | protein stability index [2] | protein stability index [3] | protein stability index [4]
24 | GTKQGHLLLYRIRKDVGCNRFEVT [VPS39] | 2.12 ± 0.37 | 2.41 ± 0.28 |  | 
25 | FNNVVEQNFKNRESYPEDTVFYIP [DLC1] | 3.01 ± 0.24 | 3.16 ± 0.2 |  | 
26 | ARGEDRAGPQSPSPGAPPAAKPAR [TSPAN10] | 5.1 ± 0.56 | 5.65 ± 0.097 |  | 
27 | PEADCIPKEQLSTSFQWVTKWVDY [PLK2] | 3.01 ± 0.34 | 2.8 ± 0.48 |  | 
28 | FICQATGDPRPKIVWNKKGKKVSN [PTPRD] | 2.84 ± 0.37 | 3.35 ± 0.68 |  | 
29 | FWDFAQGPLLDSLYWTKWYNNQSL [PKD2L1] | 2.3 ± 0.77 | 2.76 ± 0.94 |  | 
30 | TVLVSVTVFDANDNAPVFTLPEYR [PCDHGA10] | 2.76 ± 0.43 | 2.58 ± 0.36 |  | 
31 | VENGDFNWIVPGKFLAFSGPHPKS [CDC14A] | 2.76 ± 0.41 | 2.92 ± 0.43 |  | 
32 | EEALENGPKESLPVIAAPSMWTRP [ACBD3] | 4.64 ± 0.12 | 4.47 ± 0.24 |  | 
33 | LVSIRNNRNLQKFSLFGDISVLQQ [FBXO33] | 2.17 ± 0.14 | 2.09 ± 0.29 |  | 
34 | KVALEPQLWELGKVLRKAGLSAGY [LPCAT4] | 2.27 ± 0.26 | 2.21 ± 0.36 |  | 
35 | TNSSSLRLPRQNSDGGQKNKPREH [WSB1] | 5.02 ± 0.15 | 4.93 ± 0.072 |  | 
36 | GCSAVLSGGSSSSFRAGSKGLSGG [KRT71] | 3.45 ± 0.14 | 3.48 ± 0.2 |  | 
37 | SLIEDSQALHKRPKLDSEYYCFG [LURAP1L] |  |  | 2.57 ± 0.4 | 3.11 ± 0.45
38 | EAWRLVEEGIVSPSDLDLVMSEGL [CRYL1] | 3.91 ± 0.058 | 3.9 ± 0.16 |  | 
39 | DRGDYYLEGYRDNAYKDLAWKHGN [PCMTD1] | 3.18 ± 0.2 | 3.29 ± 0.19 |  | 
40 | ESESPQSHRAAGSGVSDYDYLDLD [TRIM9] | 5.5 ± 0.19 | 5.35 ± 0.2 |  | 
41 | RQGIQLNKTPGAPESSALQPPPQS [WAS] | 4.74 ± 0.6 | 4.8 ± 0.094 |  | 
42 | AALGSRGSCSTEVEKETQEKMTIL [ATP6V1G1] | 2.52 ± 0.47 | 2.52 ± 0.55 |  | 
43 | TPVILVGCQLDLRYADLEAVNRAR [RHOBTB1] | 2.46 ± 0.09 | 2.34 ± 0.39 |  | 
44 | PLLPSDLRRTGCAALRIANCKLFR [GAN] | 2.29 ± 0.34 | 2.35 ± 0.24 |  | 
45 | SPSEKNSSFTWSVPSSGYGAVTAS [SMTNL2] | 3.65 ± 0.18 | 3.74 ± 0.073 |  | 
46 | CIGQRRFHTMDELVEHYKKAPIFT [NCK2] | 2.54 ± 0.2 | 2.65 ± 0.38 |  | 

Row | Sequence | protein stability index [1] | protein stability index [2] | protein stability index [3] | protein stability index [4]
47 | PARAGSEVEWTEDLALDLGPQSRE [C2CD2L] | 5.24 ± 0.23 | 5.31 ± 0.23 |  | 
48 | CLLGLGSLVLILSLSYTVLIVGRI [SLC2A12] | 3.06 ± 0.48 | 3.26 ± 0.38 |  | 
49 | AVVKGIQSSGKVMYFSSLFPYVVL [SLC6A17] | 3.09 ± 0.49 | 2.51 ± 0.028 |  | 
50 | LSLTGVSLAGALGVKFVGLFIILQ [POMT2] | 3.05 ± 1.1 | 2.39 ± 1.1 |  | 
51 | VNLQHLDLLNNKLVTLPVSFAQLK [LRRC59] | 2.12 ± 0.23 | 2.31 ± 0.3 |  | 
52 | QQSDLGQYVTFLRSFSDKQKISLL [ALG2] | 2.22 ± 0.24 | 2.29 ± 0.23 |  | 
53 | QVATSPDFDGKLKDIAGEFKEQLQ [ATL3] | 4.34 ± 0.35 | 4.32 ± 0.38 |  | 
54 | ENILADNSVNDQTKILVVNAAYFV [SERPINB5] | 2.25 ± 0.21 | 2.34 ± 0.17 |  | 
55 | VGKGEILASLQDGAAESPYGHPAG [RAB40B] | 4.66 ± 0.24 | 4.76 ± 0.2 |  | 
56 | KLKNLRRKQRRRERWLQKQGKYSG [RNF180] | 3.83 ± 0.33 | 3.93 ± 0.4 |  | 
57 | ENSICVGFKRDYYLIRVDGKGSIK [VPS39] | 2.16 ± 0.54 | 2.35 ± 0.37 |  | 
58 | YSQASELPTDAVDCMSRELVSLTS [FBXO34] | 4.03 ± 0.14 | 4.11 ± 0.11 |  | 
59 | SSFPGSLPQETNLTLKVCKPQAPQ | 4.09 ± 0.21 | 4.14 ± 0.38 |  | 
60 | RLLSYRGERVAARGYWGDIATGPF [DNAAF3] | 2.18 ± 0.046 | 2.18 ± 0.34 |  | 
61 | ELLLFAVGFIMAGTPMALIVISYI [OR3A1] | 2.56 ± 0.033 | 3.09 ± 0.28 |  | 
62 | VSAEGSHPDPAPFCADNPSELPPP [DVL3] | 5.25 ± 0.27 | 5.32 ± 0.18 |  | 
63 | KAVANMQGEMDRKCKQVKEKCKEE [ZMYND11] | 5.14 ± 0.31 | 5.31 ± 0.3 |  | 
64 | ETRVTSGSMEALNLKQLRKRGSIP [PPFIA4] | 4.6 ± 0.07 | 4.75 ± 0.22 |  | 
65 | YVVLAYTLPPASRFIIIFEQIRFV [SOAT1] | 3.27 ± 0.48 | 2.93 ± 0.53 |  | 
66 | QICTVKDIKAEPQPLSPASSSYSV [ATF6] | 4.16 ± 0.26 | 3.98 ± 0.47 |  | 
67 | QQVKKLEKALKKNVKLQELINHKK [CEP70] | 2.6 ± 0.28 | 2.67 ± 0.41 |  | 
68 | KALYETELADARRALDDTARERAK [LMNB1] | 5.191 ± 0.038 | 5.22 ± 0.26 |  | 
69 | TDRRSFHEVREFKQLIYRVRRTDD [RIT1] | 3.03 ± 0.085 | 3.12 ± 0.14 |  | 

Row | Sequence | protein stability index [1] | protein stability index [2] | protein stability index [3] | protein stability index [4]
70 | DTAEVYAAGKAEVVLGNIIKKKGW [KCNAB2] | 3.71 ± 0.21 | 3.86 ± 0.11 |  | 
71 | EKRLEGQEEEEDNRDSSMKLSFRA [CHGA] | 5.1 ± 0.75 | 5.19 ± 0.38 |  | 
72 | CADVPLLTPSSKEMMSQALKATFS [ETS1] | 2.79 ± 0.2 | 2.66 ± 0.3 |  | 
73 | LTEAEGWHFFCFQGEATRKLAGK [SAT2] |  |  | 2.69 ± 0.29 | 3.02 ± 0.49
74 | PGSQALPAPALAPDQLPQNNTLVA [FBXO28] | 4.74 ± 0.35 | 4.88 ± 0.37 |  | 
75 | VVRYLLEQRADPNAKAHCGATALH [FEM1B] | 2.23 ± 0.21 | 2.34 ± 0.18 |  | 
76 | PPGNVYWPLRGKREAMLEMLLQHQ [SPAG8] | 2.52 ± 0.055 | 2.65 ± 0.3 |  | 
77 | TMRYINGLDPEPLPLMDLCRRSIR [SPSB4] | 3.31 ± 0.36 | 3.42 ± 0.3 |  | 
78 | PHMAEQTFEQAIQAASRIIRNEQF [CDC25B] | 3.1 ± 0.29 | 3.39 ± 0.17 |  | 
79 | RQSGDRRQLPPPPTPANEERRGGL [WAS] | 5.42 ± 0.16 | 5.23 ± 0.068 |  | 
80 | DYPYSPPTFRFLTKMWHPNIYENG [UBE2R2] | 2.21 ± 0.41 | 2.3 ± 0.13 |  | 
81 | DIVEFVCKSGYHPTKSHSFRAMCQ [CFHR2] | 2.49 ± 0.7 | 2.09 ± 0.18 |  | 
82 | QMLLNVEANSAKVQEDLEAEFQSL [FSD1] | 4.92 ± 0.21 | 4.96 ± 0.2 |  | 
83 | PNVIDNFLCDLYPLLKLACTNTYV [OR4A15] | 2.87 ± 0.2 | 3.12 ± 0.29 |  | 
84 | DPEDFEDAWKRPDALPGQSKRLAV [TLE6] | 5.08 ± 0.18 | 4.83 ± 0.29 |  | 
85 | ELKRRVAEELALEQAKKESEDQKR [CHCHD3] | 4.14 ± 0.32 | 4.37 ± 0.082 |  | 
86 | QRQQLPVTFGNKQKVLGKALSLIR [BTBD1] | 2.81 ± 1 | 2.2 ± 0.41 |  | 
87 | VQGIGIPLVTAIEIVSIWILSFIL [EDNRA] | 3.02 ± 0.63 | 2.42 ± 0.49 |  | 
88 | FTFPGMSLDKRQGEGLRIYWGSPE [TPRG1] | 2.25 ± 0.35 | 2.38 ± 0.53 |  | 
89 | PQVFVSNKINAGMYILSPAVLRRI [GMPPB] | 2.21 ± 0.39 | 2.06 ± 0.26 |  | 
